From patent US20210388087A1 (Chugai, published 2021)
Residue numbers refer to the chain shown, from its start. In names and notes the source's numbering stands.

B1: dBBDu183H V63D / dBBDu072L (antibody, name in Kabat numbering, V domains shown)
VH: QVQLVESGGGLVQPGRSLRLSCAASGFTFSNAWMHWVRQAPGKGLEWVAQIKDKGNAYAAYYAPSDKGRFTISRDDSKNSIYLQMNSLKTEDTAVYYCHYVHYASASTVLPAFGVDAWGQGTTVTVSS
VL: DIVMTQSPLSLPVTPGEPASISCQASQELVHMNRNTYLHWYQQKPGQAPRLLIYKVSNRFPGVPDRFSGSGSGTDFTLKISRVEAEDVGVYYCAQGTSVPFTFGQGTKLEIK
notes: as m1, one VH change
B2: dBBDu183H V100cT / dBBDu072L (antibody, name in Kabat numbering, V domains shown)
VH: B1 VH with D66V, V109T
VL: B1 VL
notes: as m1, one VH change
B3: dBBDu183H V63R / dBBDu072L (antibody, name in Kabat numbering, V domains shown)
VH: B1 VH with D66R
VL: B1 VL
notes: as m1, one VH change
B4: dBBDu183H Y94D / dBBDu072L (antibody, name in Kabat numbering, V domains shown)
VH: B1 VH with D66V, Y100D
VL: B1 VL
notes: as m1, one VH change
B5: dBBDu183H Y97W / dBBDu072L (antibody, name in Kabat numbering, V domains shown)
VH: B1 VH with D66V, Y103W
VL: B1 VL
notes: as m1, one VH change
B6: dBBDu183H V100cK / dBBDu072L (antibody, name in Kabat numbering, V domains shown)
VH: B1 VH with D66V, V109K
VL: B1 VL
notes: as m1, one VH change
B7: dBBDu183H V63S / dBBDu072L (antibody, name in Kabat numbering, V domains shown)
VH: B1 VH with D66S
VL: B1 VL
notes: as m1, one VH change
B8: dBBDu183H V100cW / dBBDu072L (antibody, name in Kabat numbering, V domains shown)
VH: B1 VH with D66V, V109W
VL: B1 VL
notes: as m1, one VH change
B9: dBBDu183H Y94Q / dBBDu072L (antibody, name in Kabat numbering, V domains shown)
VH: B1 VH with D66V, Y100Q
VL: B1 VL
notes: as m1, one VH change
B10: dBBDu183H V100cH / dBBDu072L (antibody, name in Kabat numbering, V domains shown)
VH: B1 VH with D66V, V109H
VL: B1 VL
notes: as m1, one VH change
B11: dBBDu183H Y94N / dBBDu072L (antibody, name in Kabat numbering, V domains shown)
VH: B1 VH with D66V, Y100N
VL: B1 VL
notes: as m1, one VH change
B12: dBBDu183H V63K / dBBDu072L (antibody, name in Kabat numbering, V domains shown)
VH: B1 VH with D66K
VL: B1 VL
notes: as m1, one VH change
B13: dBBDu183H V100cQ / dBBDu072L (antibody, name in Kabat numbering, V domains shown)
VH: B1 VH with D66V, V109Q
VL: B1 VL
notes: as m1, one VH change
B14: dBBDu183H V63G / dBBDu072L (antibody, name in Kabat numbering, V domains shown)
VH: B1 VH with D66G
VL: B1 VL
notes: as m1, one VH change
B15: dBBDu183H Y94S / dBBDu072L (antibody, name in Kabat numbering, V domains shown)
VH: B1 VH with D66V, Y100S
VL: B1 VL
notes: as m1, one VH change
B16: dBBDu183H V63F / dBBDu072L (antibody, name in Kabat numbering, V domains shown)
VH: B1 VH with D66F
VL: B1 VL
notes: as m1, one VH change
B17: dBBDu183H V63N / dBBDu072L (antibody, name in Kabat numbering, V domains shown)
VH: B1 VH with D66N
VL: B1 VL
notes: as m1, one VH change
B18: dBBDu183H V63E / dBBDu072L (antibody, name in Kabat numbering, V domains shown)
VH: B1 VH with D66E
VL: B1 VL
notes: as m1, one VH change
B19: dBBDu183H Y94T / dBBDu072L (antibody, name in Kabat numbering, V domains shown)
VH: B1 VH with D66V, Y100T
VL: B1 VL
notes: as m1, one VH change
B20: dBBDu183H V63H / dBBDu072L (antibody, name in Kabat numbering, V domains shown)
VH: B1 VH with D66H
VL: B1 VL
notes: as m1, one VH change
B21: dBBDu183H V100iT / dBBDu072L (antibody, name in Kabat numbering, V domains shown)
VH: B1 VH with D66V, V115T
VL: B1 VL
notes: as m1, one VH change
B22: dBBDu183H Y94F / dBBDu072L (antibody, name in Kabat numbering, V domains shown)
VH: B1 VH with D66V, Y100F
VL: B1 VL
notes: as m1, one VH change
B23: dBBDu183H V100cR / dBBDu072L (antibody, name in Kabat numbering, V domains shown)
VH: B1 VH with D66V, V109R
VL: B1 VL
notes: as m1, one VH change
B24: dBBDu183H Y97F / dBBDu072L (antibody, name in Kabat numbering, V domains shown)
VH: B1 VH with D66V, Y103F
VL: B1 VL
notes: as m1, one VH change
B25: dBBDu183H V63W / dBBDu072L (antibody, name in Kabat numbering, V domains shown)
VH: B1 VH with D66W
VL: B1 VL
notes: as m1, one VH change
B26: dBBDu183H V63T / dBBDu072L (antibody, name in Kabat numbering, V domains shown)
VH: B1 VH with D66T
VL: B1 VL
notes: as m1, one VH change
B27: dBBDu183H V100cS / dBBDu072L (antibody, name in Kabat numbering, V domains shown)
VH: B1 VH with D66V, V109S
VL: B1 VL
notes: as m1, one VH change
B28: dBBDu183H V100cE / dBBDu072L (antibody, name in Kabat numbering, V domains shown)
VH: B1 VH with D66V, V109E
VL: B1 VL
notes: as m1, one VH change
B29: dBBDu183H V100cY / dBBDu072L (antibody, name in Kabat numbering, V domains shown)
VH: B1 VH with D66V, V109Y
VL: B1 VL
notes: as m1, one VH change
B30: dBBDu183H V63Q / dBBDu072L (antibody, name in Kabat numbering, V domains shown)
VH: B1 VH with D66Q
VL: B1 VL
notes: as m1, one VH change
B31: GPC3 ERY22-B (bispecific antibody, human IgG1, kappa, L234A L235A, N297A)
heavy 1: DIVMTQSPLSLPVTPGEPASISCRSSQSLVHSNRNTYLHWYQQKPGQAPRLLIYKVSNRFSGVPDRFSGSGSGTDFTLKISRVEAEDVGVYYCSQNTHVPPTFGQGTKLEIKSSASTKGPSVFPLAPSSKSTSGGTAALGCLVKDYFPEPVTVSWNSGALTSGVHTFPAVLQSSGLYSLSSVVTVPSSSLGTQTYICNVNHKPSNTKVDKKVEPKSCDKTHTCPPCPAPEAAGGPSVFLFPPKPKDTLMISRTPEVTCVVVDVSHEDPEVKFNWYVDGVEVHNAKTKPREEQYASTYRVVSVLTVLHQDWLNGKEYKCKVSNKALPAPIEKTISKAKGQPREPQVCTLPPSRDELTKNQVSLWCLVKGFYPSDIAVEWESNGQPENNYKTTPPVLDSDGSFFLYSKLTVDKSRWQQGNVFSCSVMHEALHNHYTQKSLSLSPHHHHHHHH
light 1: QVQLVQSGAEVKKPGASVKVSCKASGYTFTDYEMHWIRQPPGQGLEWIGAIDPKTGDTAYSQKFKGRVTLTADKSTSTAYMELSSLTSEDTAVYYCTRFYSYTYWGQGTLVTVSSASVAAPSVFIFPPSDEQLKSGTASVVCLLNNFYPREAKVQWKVDNALQSGNSQESVTEQDSKDSTYSLSSTLTLSKADYEKHKVYACEVTHQGLSSPVTKSFNRGEC
heavy 2: QVQLQQWGAGLLKPSETLSLTCAVYGGSFSGYYWSWIRQSPEKGLEWIGEINHGGYVTYNPSLESRVTISVDTSKNQFSLKLSSVTAADTAVYYCARDYGPGNYDWYFDLWGRGTLVTVSSASTKGPSVFPLAPSSKSTSGGTAALGCLVKDYFPEPVTVSWNSGALTSGVHTFPAVLQSSGLYSLSSVVTVPSSSLGTQTYICNVNHKPSNTKVDKKVEPKSCDKTHTCPPCPAPEAAGGPSVFLFPPKPKDTLMISRTPEVTCVVVDVSHEDPEVKFNWYVDGVEVHNAKTKPREEQYASTYRVVSVLTVLHQDWLNGKEYKCKVSNKALPAPIEKTISKAKGQPREPQVYTLPPSRCELTKNQVSLSCAVKGFYPSDIAVEWESNGQPENNYKTTPPVLDSDGSFFLVSKLTVDKSRWQQGNVFSCSVMHEALHNHYTQKSLSLSP
light 2: not shown
B32: GPC3 ERY22-dBBDu_183/L063 (bispecific antibody, human IgG1, kappa, L234A L235A, N297A)
heavy 1: B31 heavy 1
light 1: B31 light 1
heavy 2: QVQLVESGGGLVQPGRSLRLSCAASGFTFSNAWMHWVRQAPGKGLEWVAQIKDKGNAYAAYYAPSVKGRFTISRDDSKNSIYLQMNSLKTEDTAVYYCHYVHYASASTVLPAFGVDAWGQGTTVTVSSASTKGPSVFPLAPSSKSTSGGTAALGCLVKDYFPEPVTVSWNSGALTSGVHTFPAVLQSSGLYSLSSVVTVPSSSLGTQTYICNVNHKPSNTKVDKKVEPKSCDKTHTCPPCPAPEAAGGPSVFLFPPKPKDTLMISRTPEVTCVVVDVSHEDPEVKFNWYVDGVEVHNAKTKPREEQYASTYRVVSVLTVLHQDWLNGKEYKCKVSNKALPAPIEKTISKAKGQPREPQVYTLPPSRCELTKNQVSLSCAVKGFYPSDIAVEWESNGQPENNYKTTPPVLDSDGSFFLVSKLTVDKSRWQQGNVFSCSVMHEALHNHYTQKSLSLSPDYKDDDDK
light 2: DIVMTQSPLSLPVTPGEPASISCRSSQELVHTNRHTYLHWYQQKPGQAPRLLIYKVSNRFPGVPDRFSGSGSGTDFTLKISRVEAEDVGVYYCAQGTQVPFTFGQGTKLEIKRTVAAPSVFIFPPSDEQLKSGTASVVCLLNNFYPREAKVQWKVDNALQSGNSQESVTEQDSKDSTYSLSSTLTLSKADYEKHKVYACEVTHQGLSSPVTKSFNRGEC

Target: T1, Human CD137 ECD (human)
T1 construct: also called 4-1BB
Assay: SPR, vs parent H183/L072

T1 sequence (chain, as listed by the source limits assumed): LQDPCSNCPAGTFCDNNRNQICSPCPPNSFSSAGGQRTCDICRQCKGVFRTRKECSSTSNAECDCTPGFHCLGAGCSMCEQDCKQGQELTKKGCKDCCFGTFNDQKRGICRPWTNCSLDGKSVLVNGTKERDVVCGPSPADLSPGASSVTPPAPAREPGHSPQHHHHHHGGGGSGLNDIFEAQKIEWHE

| fold change of affinity [fold] | Binder |
| --- | --- |
| 0.9 | B1 |
| 0.5 | B2 |
| 1 | B3 |
| 0.2 | B4 |
| 0.8 | B5 |
| 0.5 | B6 |
| 0.9 | B7 |
| 0.6 | B8 |
| 0.3 | B9 |
| 0.5 | B10 |
| 0.1 | B11 |
| 0.8 | B12 |
| 1.4 | B13 |
| 1.3 | B14 |
| 1.4 | B15 |
| 0.9 | B16 |
| 0.9 | B17 |
| 0.9 | B18 |
| 0.6 | B19 |
| 1 | B20 |
| 0.2 | B21 |
| 1.8 | B22 |
| 0.7 | B23 |
| 1.8 | B24 |
| 1 | B25 |
| 0.9 | B26 |
| 0.5 | B27 |
| 0.5 | B28 |
| 0.6 | B29 |
| 1.3 | B30 |

Target: human CD137 on HDLM-2 cells (human, UniProt Q07011 24-255)
Assay: cell-based or functional assay

human CD137 on HDLM-2 cells, sequence (Q07011 24-255): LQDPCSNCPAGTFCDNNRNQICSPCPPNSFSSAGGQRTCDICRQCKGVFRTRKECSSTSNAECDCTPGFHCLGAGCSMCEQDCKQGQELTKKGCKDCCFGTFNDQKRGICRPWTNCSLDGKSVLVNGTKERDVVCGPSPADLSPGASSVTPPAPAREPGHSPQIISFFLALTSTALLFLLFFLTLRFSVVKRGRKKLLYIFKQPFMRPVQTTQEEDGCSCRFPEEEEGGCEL

| Agonistic activity compared to B, antibody 6 ug/mL [%] | Agonistic activity compared to B, antibody 30 ug/mL [%] | Agonistic activity compared to Ctrl, antibody 6 ug/mL [%] | Agonistic activity compared to Ctrl, antibody 30 ug/mL [%] | hIL-6 (pg/mL), antibody 6 ug/mL [pg/mL] | hIL-6 (pg/mL), antibody 30 ug/mL [pg/mL] | Binder |
| --- | --- | --- | --- | --- | --- | --- |
| 100 | 100 | 347 | 380 | 4520 | 4340 | B31 |
| -1.27 | 6.51 | -4.41 | 24.7 | 968 | 1130 | B32 |
